Experimental data published in publication PMC6330057 (Nature cell biology, 2018).

Molecular target: the molecule itself
Assay: negative-stain electron microscopy of fibrils

B1: CrSSNA1(1-105) (domain or fragment, Chlamydomonas reinhardtii, UniProt Q9XF62 1-105, looked up)
chain: MSAQGQALQNHNNELVKCIEDLREKREEIIKQLREDDAEKAKITQELQILTKRLAQVNESIARKTETKNEYDKVISETEAAYLKILESSQTLLTVLKREAVNIAK
B1: binds.

B2: CrSSNA1(20-111) (domain or fragment, Chlamydomonas reinhardtii, UniProt Q9XF62 20-111, looked up)
chain: EDLREKREEIIKQLREDDAEKAKITQELQILTKRLAQVNESIARKTETKNEYDKVISETEAAYLKILESSQTLLTVLKREAVNIAKKKQASS
B2: binds.
